# Test results published in patent US20230190924A1, “ANTIGEN OF ALLERGY AND EPITOPE THEREOF” (HOYU CO., LTD., priority 2017, published 2023).
# “Also recorded” adds a separate entry of the source.
# What was measured:
# IgE antibodies in serum = experiment: ELISA of Fmoc-synthesised peptides with patient serum; assay type: binding, human; conditions: serum of cases having food allergies to chicken egg and soybean in combination
# Protocol: The peptides of the aforementioned SEQ ID NOs were prepared by the Fmoc method and studied for their binding activity against IgE antibodies in serum by ELISA. On the basis of RXRXXKXX (SEQ ID NO: 329), the peptides of chicken egg RGREDKMK and soybean RFREDKEE were prepared, and their binding activity against IgE antibodies were confirmed by ELISA using the serum of cases having food allergies to chicken egg and soybean in combination.
# [1] = test system: IgE antibody in the serum of an egg allergic patient; experiment: Immunoblotting of two-dimensional electrophoresis of chicken egg (raw egg) yolk proteins with patient serum; assay type: binding, human
# Protocol: Identification of antigens by immunoblotting was carried out by taking all the steps up to the step of “Second-dimensional SDS-PAGE” as described above in Example 1, followed by the steps of “Transfer to membrane”, “Immunoblotting” and “Analysis” as described below.
# Transfer to membrane was done using the following transfer system and transfer buffer. • Transfer system: XCell SureLock Mini-Cell and XCell II Blot Module (produced by Life Technologies) • Transfer buffer: NuPAGE Transfer Buffer (X20) (produced by Life Technologies), used in a form diluted 20-fold with milliQ water.
# To be specific, proteins in the two-dimensional electrophoresis gels were transferred to a membrane (PVDF membrane) according to the following procedure.
# (1) The PVDF membrane was immersed in 100% methanol followed by milliQ water, and then moved into the transfer buffer to hydrophilize the PVDF membrane.
# (2) After sponge, filter paper, gels treated by second-dimensional SDS-PAGE, the hydrophilized PVDF membrane, filter paper, and sponge were put in place in this order, the transfer system was energized at a constant voltage of 30 V for one hour.
# Immunoblotting of the membrane was carried out using, as a primary antibody, a serum sample from patient (patient 1) with an egg allergy or a serum sample from a non-egg-allergic subject. This egg-allergic patient was a patient diagnosed with food-dependent exercise-induced anaphylaxis (FDEIA) caused by chicken eggs.
# Immunoblotting of the membrane was carried out according to the following procedure. • (1) The transferred membrane was shaken in a 5% skim milk/PBST solution (a PBS buffer containing 0.1% Tween 20 nonionic surfactant) at room temperature for one hour. • (2) The membrane was left to stand in a solution of 5% primary antibody serum in 5% skim milk/PBST at room temperature for one hour. • (3) The membrane was washed with a PBST solution (5 min.×3 times). • (4) The membrane was left to stand in a 1:5000 dilution of the secondary antibody, anti-human IgE-HRP (horseradish peroxidase), with a 5% skim milk/PBST solution at room temperature for one hour. • (5) The membrane was washed with a PBST solution (5 min.×3 times). • (6) The membrane was left to stand in Pierce Western Blotting Substrate Plus (produced by Thermo) for 5 minutes. […]
# The immunoblots obtained with the serum from the egg-allergic patient were compared with those obtained with the control serum from the non-egg-allergic subject. By immunoblotting of the proteins contained in the raw yolk using the serum from the egg-allergic patient (FIG. 2), three spots were detected, which are different from the spots detected when the serum of the non-egg-allergic subject was used and different from those of the known chicken egg allergen proteins.
# Identification of antigens by immunoblotting was carried out using the sera of three other egg-allergic patients (patient 2, patient 3 and patient 4) in the same manner as in Example 2. By immunoblotting of the proteins contained in the raw yolk using the serum from the egg-allergic patients (FIG. 4 for patient 2, FIG. 5 for patient 3, and FIG. 6 for patient 4), spots were detected, which are different from the spots detected when the serum of the non-egg-allergic subject was used and different from those of the known chicken egg allergen proteins. To be specific, spots 4 to 8 for patient 2, spots 9 and 10 for patient 3, and spot 11 for patient 4 were detected.
# [2] = serum of egg-allergic patient 3
Molecule,binding activity against IgE antibodies by ELISA (IgE antibodies in serum),"specific reaction of serum IgE with spot in immunoblot [1, 2]",further results
RFREDKEE,patient-specific binding activity was able to be confirmed,,
RGREDKMK,patient-specific binding activity was able to be confirmed,,
"Apolipoprotein B precursor [Spot 10] (protein, listed as Gallus gallus) LDGSTSLTRKRGLKLATALSLNNNKFLGGSHDNSISLTKKNLEASMITNAKINTPVFKMNFSQELSGNTKSKPTISSGLKVTYDFTTPKHGISAKGGVAHKLALETLTSYLSVETSTKGNIDGAIYTGNSFSGALDHEANTYLHANGVRSSLKLEANSKVDGLWNSEMKEILAVEASTSRVYAVWEHNGKNFARYTPLFTTTGSQKCKATFELAPWTVSADLQIQVTQPNSFLDTASVNQVVLMKVSPTDQKVGWKGEGQIQSLSLRHDMQLSNEKSNAKFDISGSLEGYMDFLKRINCAISKKSLWDILKLDVTTVADRKHYLNASASFIYRKSDDGYFFPMPVIR",,specifically reacted; also recorded: detected,
"Vitellogenin-2 precursor (protein, listed as Gallus gallus) TPVLAAFLHGISNNKKTGGLQLVVYADTDSVRPRVQVFVTNLTDSSKWKLCADASVRNAHKAVAYVKWGWDCRDYKVSTELVTGRFAGHPAAQVKLEWPKVPSNVRSVVEWFYEFVPGAAFMLGFSERMDKNPSRQARMVVALTSPRTCDVVVKLPDIILYQKAVRLPLSLPVGPRIPASELQPPIWNVFAEAPSAVLENLKARCSVSYNKIKTFNEVKFNYSMPANCYHILVQDCSSELKFLVMMK",,,specific reaction of serum IgE with spot in immunoblot ([1]; serum of egg-allergic patient 4): specifically reacted; also recorded: detected
"Spot 3: Central sequence of vitellogenin-1, or C-terminal portion (SEQ ID NO: 18) of lipovitellin-1 (protein) DKPFASGYLKMFGQELLFGRLDKDTLQNVLQVWYGPDEKIPSIRRLISSLQTGIGRQWTKALLLSEIRCIVPTCVGFPMETSFYYSSVTKVAGNVQAQITPSPRSDFRLTELLNSNVRLRSKMSLSMAKHMTFVIGINTNMIQAGLEAHTKVNAHVPVNVVATIQMKEKSIKAEIPPCKEETNLIIVSSKTFAVTRNIEDLAASKMTPVLLPEAVPDIMKMSFDSDSASGETDNIRDRQSVEDVSSGNSFSFGHPSSGKEPFIQSMCSNASTFGVQVCIEKKSVHAAFIRNVPLYNAIGEHALRMSFKPVYSDVPIEKIQVTIQAGDQAPTK",,,"specific reaction/binding of serum IgE with spot in immunoblot ([1]; serum of egg-allergic patient 1 (food-dependent exercise-induced anaphylaxis), versus non-egg-allergic serum): specifically reacted"
"Apolipoprotein B precursor [Spot 9] (protein, listed as Gallus gallus) MGPVRLLLLLLLLSSGVLTQEGTPENGNPGCSKDAARFKSLRKYVYLYEAETSSGITGTADSRSGSKITCKVELEVPQLCQFILRTMHCSLRETFGVDSERRAMLRKSKNSDDFANAMSKHELRFSTQDGTKVKLYPEKDEPLNVLNLKRGIISALLAPTETEENIKTISMDTVYGKCDSEVEFKSRRGSVAEDISINRNLKACDNFSPIRDYVSPVAIVKGLNIPLSTLLSSTQSCHYSIDAKKKHIRDVVCSEKHLFLPSSYKNQYGMMTEVNQTLKLEDNQRMNNRNPDGDELEEKGLALESTDAK",,specifically reacted; also recorded: detected,
